Molecular target: T1, BcGabija GajA (Bacillus cereus, UniProt J8H9C1 1-578)
T1 construct: also called Bacillus cereus GajA nuclease subunit
T1 sequence: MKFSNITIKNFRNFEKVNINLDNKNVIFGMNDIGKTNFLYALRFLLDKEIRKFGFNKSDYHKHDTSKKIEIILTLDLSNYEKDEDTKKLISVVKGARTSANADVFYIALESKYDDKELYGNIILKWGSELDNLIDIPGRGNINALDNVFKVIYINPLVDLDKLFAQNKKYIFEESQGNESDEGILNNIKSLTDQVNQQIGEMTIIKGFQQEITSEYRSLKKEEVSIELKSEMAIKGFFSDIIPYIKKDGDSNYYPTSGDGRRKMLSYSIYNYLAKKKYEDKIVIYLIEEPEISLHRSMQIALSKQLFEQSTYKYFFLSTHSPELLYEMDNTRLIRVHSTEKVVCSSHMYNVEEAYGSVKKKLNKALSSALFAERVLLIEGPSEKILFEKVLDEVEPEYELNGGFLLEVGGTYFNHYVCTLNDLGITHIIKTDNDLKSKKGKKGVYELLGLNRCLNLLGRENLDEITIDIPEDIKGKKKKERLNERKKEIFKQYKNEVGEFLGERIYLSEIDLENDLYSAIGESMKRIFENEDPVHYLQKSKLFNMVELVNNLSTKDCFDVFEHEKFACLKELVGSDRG
Assay: mass photometry
Settings: both partners purified

B1: BcGabija GajB (natural protein)
chain: MSREQIIKDGGNILVTAGAGSGKTTILVSKIEADLKENKTHYSIAAVTFTNKAAKEIEGRLGYSSRGNFIGTNDGFVESEIIRPFIKDAFGNDYPDNFTAEYFDNQFASYDKGLQVLKYQNILGTYSNPKKNFKFQLALDILKKSLVARQYIFSKYFKIFIDEYQDSDKDMHNLFMYLKDQLKIKLFIVGDPKQSIYIWRGAEPENFNGLIENSTDFNKYHLTSNFRCCQDIQNYSNLFNEETRSLIKEKNEVQNVISIADDMPISDILLKLTEEKQVLNIEAELVILVRRRNQAIEIMKELNEEGFNFIFIPQTPLDRATPNATLLKEVIKYVKNDRYSIYDLAAEIVGNLSSREIKEIQKIINELLVPNINQVLINQVLINLFAKLEITLDTREITAFTEVMMTNEFDIAFDTNEYLHKIFTVHSAKGLEFNQVIITASDYNVHYNRDTNEHYVATTRAKDKLIVIMDNKKYSDYIETLMKELKIKNIIKSI
notes: also called NTPase subunit of BcGabija
- stoichiometry N: 1 GajA:GajB (4:4)

Reference: paper doi:10.1101/2025.07.10.664194 (bioRxiv, 2025)
